The assay concerns the target T1, fibrin (Homo sapiens, UniProt P02671+P02675+P02679).
T1 construct: purchased Calbiochem (EMD Biosciences, Inc., La Jolla, Calif.)
T1 sequence (P02671 36-629 limits assumed): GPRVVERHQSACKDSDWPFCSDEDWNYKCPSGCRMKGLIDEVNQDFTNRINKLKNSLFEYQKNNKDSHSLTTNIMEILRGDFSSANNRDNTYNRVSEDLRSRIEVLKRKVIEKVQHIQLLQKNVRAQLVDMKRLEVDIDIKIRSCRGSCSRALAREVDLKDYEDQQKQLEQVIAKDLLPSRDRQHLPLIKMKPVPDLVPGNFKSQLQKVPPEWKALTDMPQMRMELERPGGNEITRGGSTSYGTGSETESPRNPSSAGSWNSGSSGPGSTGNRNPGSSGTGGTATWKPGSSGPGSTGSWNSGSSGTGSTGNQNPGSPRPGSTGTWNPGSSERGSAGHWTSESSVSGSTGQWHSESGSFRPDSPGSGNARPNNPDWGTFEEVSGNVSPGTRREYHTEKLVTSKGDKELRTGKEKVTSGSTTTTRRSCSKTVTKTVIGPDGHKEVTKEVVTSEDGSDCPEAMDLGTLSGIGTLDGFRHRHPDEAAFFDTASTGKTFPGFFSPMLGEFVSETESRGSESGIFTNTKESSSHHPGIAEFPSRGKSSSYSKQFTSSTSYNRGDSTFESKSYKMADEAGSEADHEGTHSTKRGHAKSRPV
T1 sequence (P02675 45-491 limits assumed): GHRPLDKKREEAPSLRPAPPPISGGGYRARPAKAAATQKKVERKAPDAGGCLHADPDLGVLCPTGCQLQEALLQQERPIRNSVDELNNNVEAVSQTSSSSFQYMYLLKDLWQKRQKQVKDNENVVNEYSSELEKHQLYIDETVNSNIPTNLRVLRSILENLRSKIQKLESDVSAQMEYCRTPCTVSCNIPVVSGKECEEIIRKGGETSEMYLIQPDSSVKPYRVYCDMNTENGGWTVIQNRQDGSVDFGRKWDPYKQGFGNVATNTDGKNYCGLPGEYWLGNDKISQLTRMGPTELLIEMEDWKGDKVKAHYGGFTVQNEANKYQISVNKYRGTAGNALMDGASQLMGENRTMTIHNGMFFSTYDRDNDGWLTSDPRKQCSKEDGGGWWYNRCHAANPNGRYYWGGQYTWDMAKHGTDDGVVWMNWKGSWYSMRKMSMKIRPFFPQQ
T1 sequence (P02679 27-437 isoform P02679-2 limits assumed): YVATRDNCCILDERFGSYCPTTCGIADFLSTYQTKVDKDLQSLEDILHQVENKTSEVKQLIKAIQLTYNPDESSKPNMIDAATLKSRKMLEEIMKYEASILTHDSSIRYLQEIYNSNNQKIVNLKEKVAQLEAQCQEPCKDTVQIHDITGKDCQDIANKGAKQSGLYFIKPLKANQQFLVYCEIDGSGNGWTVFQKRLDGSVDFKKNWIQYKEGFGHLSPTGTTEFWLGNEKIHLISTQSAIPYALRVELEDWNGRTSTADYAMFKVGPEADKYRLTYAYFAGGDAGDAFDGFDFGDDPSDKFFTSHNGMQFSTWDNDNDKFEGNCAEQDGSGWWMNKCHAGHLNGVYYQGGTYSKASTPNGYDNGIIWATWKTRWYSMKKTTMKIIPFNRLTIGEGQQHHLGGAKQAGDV
As to the kind of experiment: Solid-phase fibrin-tPA activity assay (SOFIA-tPA), Scatchard analysis. The following applies: 37° C., read-out: KD of fibrin binding. On the procedure: tPA-binding to fibrin was tested using a modification of the solid-phase fibrin-tPA activity assay (SOFIAtPA) developed by Angles-Cano (1986). This method combines a quantitative enzyme-linked immunosorbent assay (ELISA) technique, which enables calculation of ligand binding affinities, with a chromogenic measurement of enzyme specific activity. The latter provides quantitation of tPA bound to fibrin in the microtiter well, which permits the determination of binding affinities and immobilized fibrin concentration by classic Scatchard analysis.
Nunc Maxisorb microtiter plates were coated overnight at 4° C. with human fibrinogen (Calbiochem; 2.5.tg in 50 p.l 0.05 M sodium bicarbonate, pH 9.6, per well). Background wells were left uncoated. […]
About 200 μl of substrate-zymogen reagent (0.33 μM plasminogen+0.33 mM D-Val-Leu-Lys-p-nitroanilide in 0.02 M PBS, pH 7.3, with 0.1 M sodium chloride) was added to each sample well and to 12 additional wells (standard wells). […] The plates were then read at 405 nm in a Coulter microplate reader. Based on the response of the standards and the net OD of samples corrected for background absorbance in albumin-coated wells, concentrations of bound active tPA were calculated; Scatchard analyses were then performed and binding affinities determined.

Regarding “tPA: Recombinant tissue-plasminogen activator (Activase®, Genentech Inc.), used as the thrombolytic agent [reference compound]”, the Kd amounted to 2.61 nM.

The record behind these values is US9814672B2, “Echogenic vehicle for clinical delivery of plasminogen activator and other fibrin-binding therapeutics to thrombi” (priority 2007, dated 2017).
